# B1: hCXCR2–GFP^2, P25025 1-360 (receptor)
# chain: MEDFNMESDSFEDFWKGEDLSNYSYSSTLPPFLLDAAPCEPESLEINKYFVVIIYALVFLLSLLGNSLVMLVILYSRVGRSVTDVYLLNLALADLLFALTLPIWAASKVNGWIFGTFLCKVVSLLKEVNFYSGILLLACISVDRYLAIVHATRTLTQKRYLVKFICLSIWGLSLLLALPVLLFRRTVYSSNVSPACYEDMGNNTANWRMLLRILPQSFGFIVPLLIMLFCYGFTLRTLFKAHMGQKHRAMRVIFAVVLIFLLCWLPYNLVLLADTLMRTQVIQETCERRNHIDRALDATEILGILHSCLNPLIYAFIGQKFRHGLLKILAIHGLISKDSLPKDSRPSFVGSSSGHTSTTL
# B2: hDOP–GFP^2, P41143 1-372 (receptor)
# chain: MEPAPSAGAELQPPLFANASDAYPSACPSAGANASGPPGARSASSLALAIAITALYSAVCAVGLLGNVLVMFGIVRYTKMKTATNIYIFNLALADALATSTLPFQSAKYLMETWPFGELLCKAVLSIDYYNMFTSIFTLTMMSVDRYIAVCHPVKALDFRTPAKAKLINICIWVLASGVGVPIMVMAVTRPRDGAVVCMLQFPSPSWYWDTVTKICVFLFAFVVPILIITVCYGLMLLRLRSVRLLSGSKEKDRSLRRITRMVLVVVGAFVVCWAPIHIFVIVWTLVDIDRRDPLVVAALHLCIALGYANSSLNPVLYAFLDENFKRCFRQLCRKPCGRPDPSSFSRAREATARERVTACTPSDGPGGGAAA
# Assays:
# [1] = molecular target: T1, hCXCR2–Renilla luciferase (human), P25025; assay: FRET or BRET; settings: remark: other sources report otherwise
# T1 chain: B1 chain
# [2] = molecular target: T2, hDOP–Renilla luciferase (human), P41143; assay: FRET or BRET; settings: remark: other sources report otherwise
# T2 chain: B2 chain
Binder,BRET50 ([acceptor] to [donor] ratio) [1],BRET50 ([acceptor] to [donor] ratio) [2]
B1,1.6,–
B2,–,2.2

# From publication PMC2474558
